Laboratory results published in doi:10.1101/2024.03.23.586376 (bioRxiv, 2024).

Molecular target: RagC (human (endogenous in H1HeLa), UniProt Q9HB90 1-399)
Test: co-IP

Sequence of RagC (Q9HB90 whole entry): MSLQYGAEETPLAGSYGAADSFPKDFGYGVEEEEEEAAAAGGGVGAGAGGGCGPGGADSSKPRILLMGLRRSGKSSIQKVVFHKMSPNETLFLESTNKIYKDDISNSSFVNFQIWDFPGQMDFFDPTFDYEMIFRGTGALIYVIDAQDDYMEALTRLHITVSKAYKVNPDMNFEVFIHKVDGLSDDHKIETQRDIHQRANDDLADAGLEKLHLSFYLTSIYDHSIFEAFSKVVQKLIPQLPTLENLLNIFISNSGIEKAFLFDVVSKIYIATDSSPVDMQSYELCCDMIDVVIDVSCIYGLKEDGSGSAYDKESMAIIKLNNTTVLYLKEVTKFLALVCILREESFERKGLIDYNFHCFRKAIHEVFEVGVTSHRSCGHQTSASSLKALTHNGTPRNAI

Binder	TFEB/RagC ratio in the co-IP (densitometry), EV-D68-infected cells	TFEB/RagC ratio in the co-IP (densitometry), mock-infected cells
wild-type TFEB (transcription factor EB), C-terminal GFP-tagged construct (natural protein, UniProt P19484 1-476, looked up) MASRIGLRMQLMREQAQQEEQRERMQQQAVMHYMQQQQQQQQQQLGGPPTPAINTPVHFQSPPPVPGEVLKVQSYLENPTSYHLQQSQHQKVREYLSETYGNKFAAHISPAQGSPKPPPAASPGVRAGHVLSSSAGNSAPNSPMAMLHIGSNPERELDDVIDNIMRLDDVLGYINPEMQMPNTLPLSSSHLNVYSSDPQVTASLVGVTSSSCPADLTQKRELTDAESRALAKERQKKDNHNLIERRRRFNINDRIKELGMLIPKANDLDVRWNKGTILKASVDYIRRMQKDLQKSRELENHSRRLEMTNKQLWLRIQELEMQARVHGLPTTSPSGMNMAELAQQVVKQELPSEEGPGEALMLGAEVPDPEPLPALPPQAPLPLPTQPPSPFHHLDFSHSLSFGGREDEGPPGYPEPLAPGHGSPFPSLSKKDLDLMLLDDSLLPLASDPLLSTMSPEASKASSRRSSFSMEEGDVL	0.4	1.04
Δ30-TFEB, mutant TFEB construct lacking the first 30 amino acids (RagC binding site), C-terminal GFP-tagged (domain or fragment, UniProt P19484 31-476, looked up) MHYMQQQQQQQQQQLGGPPTPAINTPVHFQSPPPVPGEVLKVQSYLENPTSYHLQQSQHQKVREYLSETYGNKFAAHISPAQGSPKPPPAASPGVRAGHVLSSSAGNSAPNSPMAMLHIGSNPERELDDVIDNIMRLDDVLGYINPEMQMPNTLPLSSSHLNVYSSDPQVTASLVGVTSSSCPADLTQKRELTDAESRALAKERQKKDNHNLIERRRRFNINDRIKELGMLIPKANDLDVRWNKGTILKASVDYIRRMQKDLQKSRELENHSRRLEMTNKQLWLRIQELEMQARVHGLPTTSPSGMNMAELAQQVVKQELPSEEGPGEALMLGAEVPDPEPLPALPPQAPLPLPTQPPSPFHHLDFSHSLSFGGREDEGPPGYPEPLAPGHGSPFPSLSKKDLDLMLLDDSLLPLASDPLLSTMSPEASKASSRRSSFSMEEGDVL	0.22	0.18
